Reference: patent publication US20240218346A1, “PHOSPHOKETOLASE VARIANTS AND METHODS OF USE” (Genomatica, Inc., priority 2021, published 2024)

Substrate: O=P(O)(O)OC[C@H]1OC(O)(CO)[C@@H](O)[C@@H]1O
Experiment: Kinetics, E4PDH based colorimetric assay for FPK activity (F6P)
Assay type: biochemical, Bifidobacterium adolescentis
Details: other: F6P
Excerpt: Mutagenesis techniques were used to generate engineered phosphoketolases based on one of two template phosphoketolases (the fructose-6-phosphate phosphoketolase from Bifidobacterium adolescentis (strain ATCC 15703 DSM 20083 NCTC 11814 E194a) (“H2”; UniProtKB Accession No. A1A185_BIFAA; SEQ ID NOs: 1 and 3) orthe xylulose-5-phosphate/fructose-6-phosphate phosphoketolase from Collinsella aerofaciens (“D3”; UniProt KB Accession No. A0A174LGR4_9ACTN; SEQ ID NOs: 2 and 4)). Engineered phosphoketolase were generated using rational protein engineering. Structural homology models were constructed for H2 and D3. The substrate docking with Xu5P and F6P were also performed. In total, 2000 variants were designed. There are 1031 constructs designed based on H2, and 969 based on D3. 1999 constructs were received from DNA synthesis. The variants were then tested for XPK and/or FPK activity in in vitro primary and secondary screens as described below.
Further biochemical characterization of selected variants was conducted and the FPK activity of these variants were assessed. 12 hits were selected from the secondary screening results of the phosphoketolase library screen for in vitro biochemical characterization. All 12 of the hits selected are variants based on SEQ ID NO: 1. The kinetics parameters measured during biochemical characterization are summarized below in Table 5. The FPK kinetics assay was based on the E4PDH based Colorimetric Assay described herein for the 12 hits and the two controls (SEQ ID NO: 1 and SEQ ID NO: 2).
The product of FPK is coupled to NADH production via a one-step enzymatic reaction of its product with E4PDH. NADH production overtime was measured by absorbance at 340 nm. The reactions are listed below.
5 μL of half diluted cell lysate was added into 45 μL of reaction buffer. The reaction buffer contained an approximate amount of E4PDH enzyme, 1 mM NADH and 5 mM F6P as substrate for primary screening. 2 mM F6P was used for secondary screening. The reaction was recorded for a 10-min kinetics reading at 340 nm at room temperature.

Row | Protein | Km [µM] | kcat [s⁻¹] | kcat/Km [M⁻¹ s⁻¹]
1 | Bifidobacterium adolescentis fructose-6-phosphate phosphoketolase (H2, SEQ ID NO: 1) variant H239R (Bifidobacterium adolescentis ATCC 15703; H238R) (protein) MMTSPVIGTPWKKLNAPVSEEAIEGVDKYWRAANYLSIGQIYLRSNPLMKEPFTREDVKHRLVGHWGTTPGLNFLIGHINRLIADHQQNTVIIMGPGHGGPAGTAQSYLDGTYTEYFPNITKDEAGLQKFFRQFSYPGGIPSHYAPETPGSIHEGGELGYALSHAYGAVMNNPSLFVPAIVGDGEAETGPLATGWQSNKLINPRTDGIVLPILHLNGYKIANPTILSRISDEELHEFFRGMGYEPYEFVAGFDNEDHLSIHRRFAELFETVFDEICDIKAAAQTDDMTRPFYPMIIFRTPKGWTCPKFIDGKKTEGSWRSHQVPLASARDTEAHFEVLKNWLESYKPEELFDENGAVKPEVTAFMPTGELRIGENPNANGGRIREELKLPKLEDYEVKEVAEYGHGWGQLEATRRLGVYTRDIIKNNPDSFRIFGPDETASNRLQAAYDVTNKQWDAGYLSAQVDEHMAVTGQVTEQLSEHQMEGFLEGYLLTGRHGIWSSYESFVHVIDSMLNQHAKWLEATVREIPWRKPISSMNLLVSSHVWRQDHNGFSHQDPGVTSVLLNKCFNNDHVIGIYFPVDSNMLLAVAEKCYKSTNKINAIIAGKQPAATWLTLDEARAELEKGAAEWKWASNVKSNDEAQIVLAATGDVPTQEIMAAADKLDAMGIKFKVVNVVDLVKLQSAKENNEALSDEEFAELFTEDKPVLFAYHSYARDVRGLIYDRPNHDNFNVHGYEEQGSTTTPYDMVRVNNIDRYELQAEALRMIDADKYADKINELEAFRQEAFQFAVDNGYDHPDYTDWVYSGVNTNKQGAISATAATAGDNE | 2432 | 57.9 | 23800
2 | Bifidobacterium adolescentis fructose-6-phosphate phosphoketolase (H2, SEQ ID NO: 1) variant M483C (Bifidobacterium adolescentis ATCC 15703; M482C) (protein) MMTSPVIGTPWKKLNAPVSEEAIEGVDKYWRAANYLSIGQIYLRSNPLMKEPFTREDVKHRLVGHWGTTPGLNFLIGHINRLIADHQQNTVIIMGPGHGGPAGTAQSYLDGTYTEYFPNITKDEAGLQKFFRQFSYPGGIPSHYAPETPGSIHEGGELGYALSHAYGAVMNNPSLFVPAIVGDGEAETGPLATGWQSNKLINPRTDGIVLPILHLNGYKIANPTILSRISDEELHEFFHGMGYEPYEFVAGFDNEDHLSIHRRFAELFETVFDEICDIKAAAQTDDMTRPFYPMIIFRTPKGWTCPKFIDGKKTEGSWRSHQVPLASARDTEAHFEVLKNWLESYKPEELFDENGAVKPEVTAFMPTGELRIGENPNANGGRIREELKLPKLEDYEVKEVAEYGHGWGQLEATRRLGVYTRDIIKNNPDSFRIFGPDETASNRLQAAYDVTNKQWDAGYLSAQVDEHMAVTGQVTEQLSEHQCEGFLEGYLLTGRHGIWSSYESFVHVIDSMLNQHAKWLEATVREIPWRKPISSMNLLVSSHVWRQDHNGFSHQDPGVTSVLLNKCFNNDHVIGIYFPVDSNMLLAVAEKCYKSTNKINAIIAGKQPAATWLTLDEARAELEKGAAEWKWASNVKSNDEAQIVLAATGDVPTQEIMAAADKLDAMGIKFKVVNVVDLVKLQSAKENNEALSDEEFAELFTEDKPVLFAYHSYARDVRGLIYDRPNHDNFNVHGYEEQGSTTTPYDMVRVNNIDRYELQAEALRMIDADKYADKINELEAFRQEAFQFAVDNGYDHPDYTDWVYSGVNTNKQGAISATAATAGDNE | 2299 | 34 | 14800
3 | Bifidobacterium adolescentis fructose-6-phosphate phosphoketolase (H2, SEQ ID NO: 1) variant Y804W (Bifidobacterium adolescentis ATCC 15703; Y803W) (protein) MMTSPVIGTPWKKLNAPVSEEAIEGVDKYWRAANYLSIGQIYLRSNPLMKEPFTREDVKHRLVGHWGTTPGLNFLIGHINRLIADHQQNTVIIMGPGHGGPAGTAQSYLDGTYTEYFPNITKDEAGLQKFFRQFSYPGGIPSHYAPETPGSIHEGGELGYALSHAYGAVMNNPSLFVPAIVGDGEAETGPLATGWQSNKLINPRTDGIVLPILHLNGYKIANPTILSRISDEELHEFFHGMGYEPYEFVAGFDNEDHLSIHRRFAELFETVFDEICDIKAAAQTDDMTRPFYPMIIFRTPKGWTCPKFIDGKKTEGSWRSHQVPLASARDTEAHFEVLKNWLESYKPEELFDENGAVKPEVTAFMPTGELRIGENPNANGGRIREELKLPKLEDYEVKEVAEYGHGWGQLEATRRLGVYTRDIIKNNPDSFRIFGPDETASNRLQAAYDVTNKQWDAGYLSAQVDEHMAVTGQVTEQLSEHQMEGFLEGYLLTGRHGIWSSYESFVHVIDSMLNQHAKWLEATVREIPWRKPISSMNLLVSSHVWRQDHNGFSHQDPGVTSVLLNKCFNNDHVIGIYFPVDSNMLLAVAEKCYKSTNKINAIIAGKQPAATWLTLDEARAELEKGAAEWKWASNVKSNDEAQIVLAATGDVPTQEIMAAADKLDAMGIKFKVVNVVDLVKLQSAKENNEALSDEEFAELFTEDKPVLFAYHSYARDVRGLIYDRPNHDNFNVHGYEEQGSTTTPYDMVRVNNIDRYELQAEALRMIDADKYADKINELEAFRQEAFQFAVDNGYDHPDYTDWVWSGVNTNKQGAISATAATAGDNE | 2860 | 30.8 | 10800
4 | Bifidobacterium adolescentis fructose-6-phosphate phosphoketolase (H2, SEQ ID NO: 1) variant C567S (Bifidobacterium adolescentis ATCC 15703; C566S) (protein) MMTSPVIGTPWKKLNAPVSEEAIEGVDKYWRAANYLSIGQIYLRSNPLMKEPFTREDVKHRLVGHWGTTPGLNFLIGHINRLIADHQQNTVIIMGPGHGGPAGTAQSYLDGTYTEYFPNITKDEAGLQKFFRQFSYPGGIPSHYAPETPGSIHEGGELGYALSHAYGAVMNNPSLFVPAIVGDGEAETGPLATGWQSNKLINPRTDGIVLPILHLNGYKIANPTILSRISDEELHEFFHGMGYEPYEFVAGFDNEDHLSIHRRFAELFETVFDEICDIKAAAQTDDMTRPFYPMIIFRTPKGWTCPKFIDGKKTEGSWRSHQVPLASARDTEAHFEVLKNWLESYKPEELFDENGAVKPEVTAFMPTGELRIGENPNANGGRIREELKLPKLEDYEVKEVAEYGHGWGQLEATRRLGVYTRDIIKNNPDSFRIFGPDETASNRLQAAYDVTNKQWDAGYLSAQVDEHMAVTGQVTEQLSEHQMEGFLEGYLLTGRHGIWSSYESFVHVIDSMLNQHAKWLEATVREIPWRKPISSMNLLVSSHVWRQDHNGFSHQDPGVTSVLLNKSFNNDHVIGIYFPVDSNMLLAVAEKCYKSTNKINAIIAGKQPAATWLTLDEARAELEKGAAEWKWASNVKSNDEAQIVLAATGDVPTQEIMAAADKLDAMGIKFKVVNVVDLVKLQSAKENNEALSDEEFAELFTEDKPVLFAYHSYARDVRGLIYDRPNHDNFNVHGYEEQGSTTTPYDMVRVNNIDRYELQAEALRMIDADKYADKINELEAFRQEAFQFAVDNGYDHPDYTDWVYSGVNTNKQGAISATAATAGDNE | 3046 | 26.4 | 8660
5 | Bifidobacterium adolescentis fructose-6-phosphate phosphoketolase (H2, SEQ ID NO: 1) variant H257P (Bifidobacterium adolescentis ATCC 15703; H256P) (protein) MMTSPVIGTPWKKLNAPVSEEAIEGVDKYWRAANYLSIGQIYLRSNPLMKEPFTREDVKHRLVGHWGTTPGLNFLIGHINRLIADHQQNTVIIMGPGHGGPAGTAQSYLDGTYTEYFPNITKDEAGLQKFFRQFSYPGGIPSHYAPETPGSIHEGGELGYALSHAYGAVMNNPSLFVPAIVGDGEAETGPLATGWQSNKLINPRTDGIVLPILHLNGYKIANPTILSRISDEELHEFFHGMGYEPYEFVAGFDNEDPLSIHRRFAELFETVFDEICDIKAAAQTDDMTRPFYPMIIFRTPKGWTCPKFIDGKKTEGSWRSHQVPLASARDTEAHFEVLKNWLESYKPEELFDENGAVKPEVTAFMPTGELRIGENPNANGGRIREELKLPKLEDYEVKEVAEYGHGWGQLEATRRLGVYTRDIIKNNPDSFRIFGPDETASNRLQAAYDVTNKQWDAGYLSAQVDEHMAVTGQVTEQLSEHQMEGFLEGYLLTGRHGIWSSYESFVHVIDSMLNQHAKWLEATVREIPWRKPISSMNLLVSSHVWRQDHNGFSHQDPGVTSVLLNKCFNNDHVIGIYFPVDSNMLLAVAEKCYKSTNKINAIIAGKQPAATWLTLDEARAELEKGAAEWKWASNVKSNDEAQIVLAATGDVPTQEIMAAADKLDAMGIKFKVVNVVDLVKLQSAKENNEALSDEEFAELFTEDKPVLFAYHSYARDVRGLIYDRPNHDNFNVHGYEEQGSTTTPYDMVRVNNIDRYELQAEALRMIDADKYADKINELEAFRQEAFQFAVDNGYDHPDYTDWVYSGVNTNKQGAISATAATAGDNE | 2422 | 25 | 10300
6 | Bifidobacterium adolescentis fructose-6-phosphate phosphoketolase (H2, SEQ ID NO: 1) variant Q759L (Bifidobacterium adolescentis ATCC 15703; Q758L) (protein) MMTSPVIGTPWKKLNAPVSEEAIEGVDKYWRAANYLSIGQIYLRSNPLMKEPFTREDVKHRLVGHWGTTPGLNFLIGHINRLIADHQQNTVIIMGPGHGGPAGTAQSYLDGTYTEYFPNITKDEAGLQKFFRQFSYPGGIPSHYAPETPGSIHEGGELGYALSHAYGAVMNNPSLFVPAIVGDGEAETGPLATGWQSNKLINPRTDGIVLPILHLNGYKIANPTILSRISDEELHEFFHGMGYEPYEFVAGFDNEDHLSIHRRFAELFETVFDEICDIKAAAQTDDMTRPFYPMIIFRTPKGWTCPKFIDGKKTEGSWRSHQVPLASARDTEAHFEVLKNWLESYKPEELFDENGAVKPEVTAFMPTGELRIGENPNANGGRIREELKLPKLEDYEVKEVAEYGHGWGQLEATRRLGVYTRDIIKNNPDSFRIFGPDETASNRLQAAYDVTNKQWDAGYLSAQVDEHMAVTGQVTEQLSEHQMEGFLEGYLLTGRHGIWSSYESFVHVIDSMLNQHAKWLEATVREIPWRKPISSMNLLVSSHVWRQDHNGFSHQDPGVTSVLLNKCFNNDHVIGIYFPVDSNMLLAVAEKCYKSTNKINAIIAGKQPAATWLTLDEARAELEKGAAEWKWASNVKSNDEAQIVLAATGDVPTQEIMAAADKLDAMGIKFKVVNVVDLVKLQSAKENNEALSDEEFAELFTEDKPVLFAYHSYARDVRGLIYDRPNHDNFNVHGYEEQGSTTTPYDMVRVNNIDRYELLAEALRMIDADKYADKINELEAFRQEAFQFAVDNGYDHPDYTDWVYSGVNTNKQGAISATAATAGDNE | 3596 | 35.6 | 9890
